Measurements: the supplement of paper PMC9170038

Test system: MS2 coat protein
Assay: apparent KD of MS2 coat protein; designed switch direction (-1 OFF switch, 1 ON switch): 1; higher = weaker reporter binding
Procedure, shortened: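 RNA switches sharing common flanks were transcribed by stalled E. coli RNA polymerase on Illumina chips. A doubling series of SNAP-549-labelled MS2 coat protein, from 0.7 or 1.5 nM to 3 µM, was applied in Tris-HCl pH 7.5 buffer with KCl, MgCl2, BSA, DTT, tRNA and Tween-20. Each step lasted 0.8–1.5 h at the bottom of the series and 10–20 min at the top. Normalised cluster fluorescence was curve-fitted, giving apparent KD as the per-design median over clusters.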

[1] = input ligand: microRNA oligo, concentration not stated
[2] = Eterna round: R95, input ligand: FMN 200 uM
[3] = Eterna round: R95, input ligand: microRNA oligo, concentration not stated
[4] = Eterna round: R95, input ligand: none

Sequence | apparent KD of MS2 coat protein (input ligand: FMN 200 uM) [nM] | apparent KD of MS2 coat protein [1] [nM] | apparent KD of MS2 coat protein (input ligand: none) [nM] | apparent KD of MS2 coat protein [2] [nM] | apparent KD of MS2 coat protein [3] [nM] | apparent KD of MS2 coat protein [4] [nM]
ACAUGAGGAUCACCCAUGUAUAGAAUUGAAUGUUAAGAUACGUAGGAUAUCGAGAUUAGUAUGAUCGAGAAGGACGAUUAGAUA [JR_SSNG3_Sub064] (Eterna round: R96, puzzle: Same State NG 3) | 12.6 | 16.6 | 20.3 |  |  | 
ACAUGAGGAUCACCCAUGUAUGCUCAGGAAACUGUGCAGCAUUAGGAUAUGGAUCCUAAUUGGAUCCAGAAGGAGUGAAUUAUU [Fiskers NG3ss - 26] (Eterna round: R96, puzzle: Same State NG 3) | 82.2 | 117 | 126 |  |  | 
ACCCGAAGUAUAUGGGAACAAGCUUUUUAACAUGAGGAUCACCCAUGUACUCGUCUUAUAAGCAGUCGAAAGACUGC [Sensor 100 - 5] (puzzle: Sensor for hsa-mir-208a) |  |  |  | 21.7 | 17.3 | 44.5
ACGCAGCUGGGUAAGGAUAUCGGUGGUAAAACAUGAGGAUCACCCAUGUCCGAAGCUCGGACUUCCGAGAAGGUGCCCGGCUGCG [Soinraesar Omei Mod 6] (puzzle: Same State 2) |  |  |  | 23.8 | 222 | 218
ACGCAGCUGGGUGAGGAUAUUGGUGGUACAACAUGAGGAUCACCCAUGUCCGAAGCUCGGACCUCCGAGAAGGCGCCCGGCUGCG [Soinraesar Omei Mod 4] (puzzle: Same State 2) |  |  |  | 39.7 | 269 | 912
AGAAUGCACAUGAGGAUCACCCAUGUACCCGGCUGGCAUUUGCAGGAUAUGCCGCGGCGAGCCCAGCAGAAGGGCAAGUGCUAA [Eternabot solution 4] (Eterna round: R96, puzzle: Same State NG 3) | 25.8 | 19 | 26.9 |  |  | 
AGAGCCGGCACUGAGGAUAUUCAUAAUAAAACAUGAGGAUCACCCAUGUAGGCCAGAAGGCCUUGGGAGAAGGCAGGUCGGCUCA [Mat - Same State 2 - Mod of UCT - D67] (puzzle: Same State 2) |  |  |  | 16.7 | 176 | 269
AGCAAUCUAUCUCAGGAUAUCAUGUCAAAGACAUGAGGAUCACCCAUGUACCAGGAAACUGGUUAUGAGAAGGGAGAUAGAUUGA [Mat - Same State 2 - Mod - D29] (puzzle: Same State 2) |  |  |  | 154 | 52.2 | 177
AGCCGAGACACAGGAUAUACAUGUUUACAUGAGGAUCACCCAUGUAGCAACACGUGGUAGUGAUUGUAGAAGGGUGCUCGGCGC [Omei SS(NG)2 Cv12] (Eterna round: R96, puzzle: Same State NG 2) | 15.8 | 12.6 | 23.3 |  |  | 
AGCCGAGACUGAGGAUAUAGAAAUCUACAUGAGGAUCACCCAUGUAACAACACGUGGUAGUGAUUCUAGAAGGCGGCUCGGCGC [Omei SS(NG)2 Cv4] (Eterna round: R96, puzzle: Same State NG 2) | 113 | 279 | 1150 |  |  | 
AGCUAUCGAAAACGAUAGCAAAAGCAUGUACAUGAGGAUCACCCAUGUCAUGUACAAGUUUUUUGCUCGUCUUAAAA [Zipper 23 - 13] (puzzle: Sensor for hsa-mir-208a) |  |  |  | 107 | 13.1 | 121
AGCUAUCGAAAACGAUAGCAAGAGCAUGUACAUGAGGAUCACCCAUGUCAUGUACAAGCUUUUUGCUCGUCUUAAAA [Zipper 23 - 2] (puzzle: Sensor for hsa-mir-208a) |  |  |  | 330 | 17 | 490
AGCUAUCGCGUACGAUAGCUGAAGCAUGUACAUGAGGAUCACCCAUGUCAUGUGCAGGCUUUUUGCUCGUCUUAUUG [JL-shm-2.30 JL mod] (puzzle: Sensor for hsa-mir-208a) |  |  |  | 68.9 | 13.3 | 75.1
